The record followed here is patent US20230406935A1 (F STAR THERAPEUTICS, published 2023).

Like-named read-outs stand apart in the source and are kept apart here.

Data set [1] concerns the target T1, Human PD-L1 expressed on cells (human, UniProt Q9NZQ7 19-290). Description: cell-based or functional assay.
Data set [2] has as its target T1, Human PD-L1 expressed on cells. Nature of the data set: flow cytometry, HEK293 cells overexpressing the target, anti-human Fc 488. The method, then:
(§1) Cell binding assays were performed by incubating the mock mAb² with either control HEK293 cells or HEK293 cells overexpressing hPD-L1 or cynomolgus PD-L1 cells for 1 hour at 4° C. Mock mAb² binding was subsequently detected using an anti-human Fc 488 detection antibody. Fluorescent signal intensities were measured using a FACS Canto flow cytometer (BD Biosciences).
For orientation: Flow cytometry measures light scatter and fluorescence of single cells or particles in a stream.

Data set [3] deals with T2, Cynomolgus PD-L1 expressed on HEK 293 cells (cynomolgus, UniProt Q9NZQ7 19-290 (human entry)).
T2 construct: also called cell-expressed cynomolgus PD-L1
Described as above. The method, then:
as §1

For data set [4], the target named is T3, Monomeric cynomolgus PD-L1 (Acro Biosciences PD1-C52H4) (cynomolgus, UniProt Q9NZQ7 19-238 (human entry)).
T3 construct: also called cynomolgus monomeric PD-L1
Description: SPR Biacore T200, mock mAb^2 captured by anti-Fab on CM5, monomeric antigen in flow, 1:1 fit. For orientation: In SPR one partner is held on a chip, and binding of the other changes the refractive index at the surface.

Data set [5] concerns the target T4, Monomeric His-tagged human PD-L1 (Acro biosystems PD1-H5229) (human, UniProt Q9NZQ7 19-238).
T4 construct: also called hPD-L1-his; PD-L1-his
The description is as above.

The target of data set [6] is T4, Monomeric His-tagged human PD-L1 (Acro …). Description: SPR Biacore T200 as Example 5.1, anti-Fab capture, monomeric hPD-L1-his. On the procedure:
Fcab and mAb² binding to human PD-L1 was assessed by both BIAcore and in a cell binding assay. To measure the affinity of the clones to monomeric hPD-L1-his, the mAb² were captured using an anti-Fab antibody coated on a CM5 chip (GE 28-9582-20 AC) and Fcabs were captured using a Protein A chip (GE 29127556) using a Biacore T200 (GE). To minimize mass transport effects, the capture level was minimized to 200RU and a fast flow rate of 75 μl/min was used. […] The analysis of the data was done using the Biacore T200 evaluation software. Curves subtracted against a blank flow cell and a run with no antigen were analysed using a 1:1 fitting model with no bulk analysis and Rmax analysed locally.
The selected CH3 domain sequences were subcloned and expressed in “mock” (MSL109) mAb² format with the LALA mutation in the CH2 domain, as described in Example 4.2.1, for further screening.

Data set [7] has as its target T5, Biotinylated hPD-L1-Fc-Avi (human, UniProt Q9NZQ7 19-238). Nature of the data set: cell-based RBA (Example 8.3), blocking of hPD-L1-Fc-Avi binding to HEK293 hPD-1 cells. On the procedure: (§2) The ability of the mock mAb² to block hPD-1/hPD-L1 and hPD-L1/hCD80 interactions was tested in cell-based Receptor Blocking Assays (RBA). […] The mix was incubated for another hour with HEK293 cells overexpressing either hPD-1 or hCD80.

The target of data set [8] is T1, Human PD-L1 expressed on cells. Nature of the data set: cell-based or functional assay. This is another data set of the same source.
For data set [9] the target is unchanged. Nature of the data set: cell-based or functional assay. This is another data set of the same source.
Data set [10] has as its target T5, Biotinylated hPD-L1-Fc-Avi. Description: cell-based RBA (Example 8.3), blocking of hPD-L1-Fc-Avi binding to HEK293 hCD80 cells. On the procedure:
as §2

In data set [11] the target is T1, Human PD-L1 expressed on cells. Description: cell-based or functional assay. This is another data set of the same source.
Data set [12] has the same target. Nature of the data set: cell-based or functional assay. The source holds these as a separate data set.
The target in data set [13] is T4, Monomeric His-tagged human PD-L1 (Acro …). Nature of the data set: SPR Biacore, captured on protein A, monomeric PD-L1-his in flow, 1:1 fit. On the procedure:
The monomeric PD-L1-his human antigen was flowed over the chip in titrating concentrations at a high flow rate to minimise mass transport limitations. The KDS were measured using a 1:1 fitting analysis with no refractive index correction and Rₘₐₓ set to local.

Data set [14] deals with the molecule itself. Nature of the data set: analytical ultracentrifugation, self-association of the Fcab (monomer and dimer peaks). The method, then:
To address this, the molecules were analysed via analytical ultracentrifugation using a Beckman Optima XL-1 instrument.
These domains were then purified using protein A to remove Fc domains, anti-his to remove enzymes and finally subjected to SEC to purify the monomeric fraction.

Data set [15] addresses T6, Recombinant human PD-1 with a C-terminal human IgG tag (R&D Systems, 1086-PD) (human, UniProt Q15116 25-167).
T6 construct: also called human PD-1 Fc; biotinylated PD-1 Fc
Description: SPR Biacore, PD-1 coated on the chip, Fcab in flow. An excerpt: (§3) The Fcab was then flowed over the chip at a 1000-fold concentration range. […] However, the Fcab did bind to PD-L1.

For data set [16], the target named is T5, Biotinylated hPD-L1-Fc-Avi. Description: cell-based RBA, blocking of hPD-L1-Fc-Avi binding to HEK293 hCD80 cells. On the procedure: (§4) The ability of the Fcabs and mock mAb² to block hPD-1/hPD-L1 and hPD-L1/hCD80 interactions was tested in cell-based Receptor Binding Assays (RBA). […] The mix was incubated for another hour with HEK293 cells overexpressing either hPD-1 or hCD80.

Data set [17] concerns the target T3, Monomeric cynomolgus PD-L1 (Acro …). Description: SPR Biacore T200, Fcab captured on protein A chip, monomeric antigen in flow, 1:1 fit.
In data set [18] the target is T4, Monomeric His-tagged human PD-L1 (Acro …). The data set is described as above.
The target in data set [19] is T5, Biotinylated hPD-L1-Fc-Avi. Description: cell-based RBA, blocking of hPD-L1-Fc-Avi binding to HEK293 hPD-1 cells. The method, then: as §4
Data set [20] deals with T1, Human PD-L1 expressed on cells. Description: flow cytometry, HEK293 cells overexpressing the target, anti-human Fc 488. On the procedure:
(§5) Cell binding assays were performed by incubating Fcabs or mAb² proteins with either control HEK293 cells or HEK293 cells overexpressing hPD-L1 or cynomolgus PD-L1 cells for 1 hour at 4° C. Fcab/mAb binding was subsequently detected using an anti-human Fc 488 detection antibody. Fluorescent signal intensities were measured using a FACS canto.
The source holds these as a separate data set.

Data set [21] addresses T2, Cynomolgus PD-L1 expressed on HEK 293 …. Described as above. On the procedure:
as §5
This is another data set of the same source.

In data set [22] the target is T7, PD-L2 (R&D systems 1224-PL) (UniProt Q9BQ51 20-219).
T7 sequence (looked up): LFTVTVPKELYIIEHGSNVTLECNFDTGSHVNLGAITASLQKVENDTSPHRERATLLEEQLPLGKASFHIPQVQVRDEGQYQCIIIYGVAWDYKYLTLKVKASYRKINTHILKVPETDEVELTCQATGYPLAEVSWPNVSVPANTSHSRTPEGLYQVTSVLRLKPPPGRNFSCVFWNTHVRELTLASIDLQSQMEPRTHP
Description: SPR Biacore, PD-L2 coated on the chip, Fcab in flow.
Excerpt: as §3

For orientation: EC50 means the concentration that produces a half-maximal response. Usually Kd stands for the equilibrium constant for the complex coming apart. The koff is the rate constant with which the complex falls apart. Lower therefore signals a long-lived complex. The term kon denotes the second-order rate constant of association.

T4 sequence (Q9NZQ7 19-238 limits assumed): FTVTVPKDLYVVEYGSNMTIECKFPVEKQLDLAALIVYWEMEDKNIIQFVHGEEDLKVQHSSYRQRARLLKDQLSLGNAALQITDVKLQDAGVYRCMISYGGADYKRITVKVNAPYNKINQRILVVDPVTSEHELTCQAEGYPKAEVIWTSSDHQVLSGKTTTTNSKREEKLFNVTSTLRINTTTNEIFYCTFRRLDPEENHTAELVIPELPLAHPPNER
T5 sequence (Q9NZQ7 19-238 limits assumed): as above
T2 sequence (Q9NZQ7 other isoform, or with tags, fused parts or gaps limits assumed): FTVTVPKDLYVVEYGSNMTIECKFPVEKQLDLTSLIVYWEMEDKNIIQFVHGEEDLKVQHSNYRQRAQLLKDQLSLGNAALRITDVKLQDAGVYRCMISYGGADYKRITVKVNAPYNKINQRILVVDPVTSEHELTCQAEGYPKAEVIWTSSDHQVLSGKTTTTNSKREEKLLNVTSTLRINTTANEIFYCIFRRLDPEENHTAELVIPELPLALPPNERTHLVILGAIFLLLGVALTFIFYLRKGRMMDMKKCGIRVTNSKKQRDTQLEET
T1 sequence (Q9NZQ7 19-290 limits assumed): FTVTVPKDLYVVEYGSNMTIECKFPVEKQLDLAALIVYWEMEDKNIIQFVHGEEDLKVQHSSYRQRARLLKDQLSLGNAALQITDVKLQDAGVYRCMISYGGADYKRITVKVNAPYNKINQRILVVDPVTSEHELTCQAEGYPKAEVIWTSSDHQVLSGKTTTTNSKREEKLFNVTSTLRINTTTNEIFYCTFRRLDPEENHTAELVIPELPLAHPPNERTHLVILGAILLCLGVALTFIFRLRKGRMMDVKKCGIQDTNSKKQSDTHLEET
T3 sequence (Q9NZQ7 other isoform, or with tags, fused parts or gaps limits assumed): as the sequence (Q9NZQ7 19-238 limits assumed) above, with A33T, A34S, S62N, R68Q, Q82R, F173L, T185A, T192I, H215L counted along it
T6 sequence (Q15116 25-167 limits assumed): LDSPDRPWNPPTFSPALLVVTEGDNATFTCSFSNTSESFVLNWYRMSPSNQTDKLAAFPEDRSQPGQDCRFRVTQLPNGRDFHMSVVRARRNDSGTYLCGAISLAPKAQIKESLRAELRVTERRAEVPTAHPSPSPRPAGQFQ

B1: FS17-33-116/4420 mAb^2 (bispecific antibody, human IgG1, kappa, L234A L235A, V domains shown)
VH: EVKLDETGGGLVQPGRPMKLSCVASGFTFSDYWMNWVRQSPEKGLEWVAQIRNKPYNYETYYSDSVKGRFTISRDDSKSSVYLQMNNLRVEDMGIYYCTGSYYGMDYWGQGTSVTVSS
VL: DVVMTQTPLSLPVSLGDQASISCRSSQSLVHSNGNTYLRWYLQKPGQSPKVLIYKVSNRFSGVPDRFSGSGSGTDFTLKISRVEAEDLGVYFCSQSTHVPWTFGGGTKLEIKR
As to B1, in [1], the “DO11.10 T cell activation assay EC50” value is less than 1 nM.

B2: FS17-33-539AA/MSL109 (bispecific antibody, human IgG1, kappa, L234A L235A)
heavy: EEQVLESGGGLVKPGGSLRLSCAASGFTFSPYSVFWVRQAPGKGLEWVSSINSDSTYKYYADSVKGRFTISRDNAENSIFLQMNSLRAEDTAVYYCARDRSYYAFSSGSLSDYYYGLDVWGQGTTVIVSSASTKGPSVFPLAPSSKSTSGGTAALGCLVKDYFPEPVTVSWNSGALTSGVHTFPAVLQSSGLYSLSSVVTVPSSSLGTQTYICNVNHKPSNTKVDKKVEPKSCDKTHTCPPCPAPEAAGGPSVFLFPPKPKDTLMISRTPEVTCVVVDVSHEDPEVKFNWYVDGVEVHNAKTKPREEQYNSTYRVVSVLTVLHQDWLNGKEYKCKVSNKALPAPIEKTISKAKGQPREPQVYTLPPSRDETGYWVSLTCLVKGFYPSDIAVEWESNGEPQYWAKTTPPVLDSDGSFFLYSKLTVSNWRWQLGDVFSCSVMHEALRNHYTQKSLSLSPGK
light: DIVMTQSPLSLSVTPGEPASISCRSSQSLLHTNGYNYLDWYVQKPGQSPQLLIYLASNRASGVPDRFSGSGSGTDFTLKISRVETEDVGVYYCMQALQIPRTFGQGTKVEIKRTVAAPSVFIFPPSDEQLKSGTASVVCLLNNFYPREAKVQWKVDNALQSGNSQESVTEQDSKDSTYSLSSTLTLSKADYEKHKVYACEVTHQGLSSPVTKSFNRGEC
For the molecule B2, the EC50 in [2] was 4.8 nM; in [3], 10 nM; in data set [7] it was 49.7 nM; in data set [10], 119 nM. The results for the Kd in [4], in data set [5] and in [6] were 0.95 nM, 0.9 nM and 0.39 nM, respectively. The molecule also displayed a koff in [6] of 0.000427 s⁻¹. The “DO11.10 EC50” value in data set [8] worked out at 2.91 nM; in data set [9] it was 3.14 nM.

B3: FS17-33-548AA/MSL109 (bispecific antibody, human IgG1, kappa, L234A L235A)
heavy: EEQVLESGGGLVKPGGSLRLSCAASGFTFSPYSVFWVRQAPGKGLEWVSSINSDSTYKYYADSVKGRFTISRDNAENSIFLQMNSLRAEDTAVYYCARDRSYYAFSSGSLSDYYYGLDVWGQGTTVIVSSASTKGPSVFPLAPSSKSTSGGTAALGCLVKDYFPEPVTVSWNSGALTSGVHTFPAVLQSSGLYSLSSVVTVPSSSLGTQTYICNVNHKPSNTKVDKKVEPKSCDKTHTCPPCPAPEAAGGPSVFLFPPKPKDTLMISRTPEVTCVVVDVSHEDPEVKFNWYVDGVEVHNAKTKPREEQYNSTYRVVSVLTVLHQDWLNGKEYKCKVSNKALPAPIEKTISKAKGQPREPQVYTLPPSRDEEGYWVSLTCLVKGFYPSDIAVEWESNGEPQYWAKTTPPVLDSDGSFFLYSKLTVSNWRWQLGDVFSCSVMHEALHNHYTQKSLSLSPGK
light: DIVMTQSPLSLSVTPGEPASISCRSSQSLLHTNGYNYLDWYVQKPGQSPQLLIYLASNRASGVPDRFSGSGSGTDFTLKISRVETEDVGVYYCMQALQIPRTFGQGTKVEIKRTVAAPSVFIFPPSDEQLKSGTASVVCLLNNFYPREAKVQWKVDNALQSGNSQESVTEQDSKDSTYSLSSTLTLSKADYEKHKVYACEVTHQGLSSPVTKSFNRGEC
Turning to B3, the EC50 in [2] is 1.5 nM; in data set [3], 2.1 nM; in [7] it was 43.2 nM; in data set [10], 130 nM. The Kd in data set [4] amounted to 0.45 nM; in [5] it was 0.6 nM; in data set [6], 0.43 nM. In data set [6], this molecule registered a koff of 0.000437 s⁻¹. The “DO11.10 EC50” value amounted to 7.59 nM in [8] and 8.51 nM in data set [9].

B4: Fcab FS17-33-116 with LALA mutation (designed binder)
chain: TCPPCPAPEAAGGPSVFLFPPKPKDTLMISRTPEVTCVVVDVSHEDPEVKFNWYVDGVEVHNAKTKPREEQYNSTYRVVSVLTVLHQDWLNGKEYKCKVSNKALPAPIEKTISKAKGQPREPQVYTLPPSRDESGYWVSLTCLVKGFYPSDIVVEWESNGEPQYWAKTTPPVLDSDGSFFLYSKLTVSNWRWQMDDFSCSVMHEALHNHYTQKSLSLSPGK
Consider B4, for which the “DO11.10 T cell activity assay EC50” value in data set [11] was found to be 0.28 nM. Moreover, the “DO11.10 T cell activation assay EC50” value in [12] came to 0.28 nM.

B5: Fcab FS17-33-116 (designed binder)
chain: TCPPCPAPELLGGPSVFLFPPKPKDTLMISRTPEVTCVVVDVSHEDPEVKFNWYVDGVEVHNAKTKPREEQYNSTYRVVSVLTVLHQDWLNGKEYKCKVSNKALPAPIEKTISKAKGQPREPQVYTLPPSRDESGYWVSLTCLVKGFYPSDIVVEWESNGEPQYWAKTTPPVLDSDGSFFLYSKLTVSNWRWQMDDFSCSVMHEALHNHYTQKSLSLSPGK
For the molecule B5, the Kd in data set [13] is 0.49 nM; in [14], roughly 2000 nM; in [17], 0.42 nM; in [18] it was 0.33 nM; in data set [20] it was 1.68 nM; in data set [21], 0.665 nM. Moreover, the koff in data set [13] came to 0.00044 s⁻¹. In data set [13], this molecule had a kon of 1.5e+06 M⁻¹ s⁻¹. Moreover, the binding result in data set [15] and in [22] was “no binding” throughout. Also, the EC50 in [16] was found to be 8.4 nM; in data set [19], 9.5 nM.
